# Reference: the nanobody polyreactivity screen of Harvey et al. (2022)
# Assay: yeast display, Sf9 membrane polyspecificity reagent, FACS + sequencing; frameworks hold sequencing errors
# Method in brief: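 Polyreactivity labels are assigned by the sorting gate from which each nanobody was recovered. The gates were low and high (top ~1%), set on anti-HA fluorescence for expression and streptavidin fluorescence for reagent binding. Before sorting, galactose-induced (36–48 hours) yeast display cells were stained for 1 hour at 4 °C with 10% biotinylated, detergent-solubilized Sf9 membrane reagent.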
row,Sequence,polyreactivity (PSR sort gate)
1,QVQLVESGGGLVQAGGSLRLSCAASGRTISKNAMGWYRQAPGKERELVAAISGSGGSTYYADSVKGRFTISRDNAKNTVYLQMNSLKPEDTAVYYCADRYTVSRSGYWGQGTQVTVSS,high polyreactivity
2,QVQLVESGGGLVQAGGSLRLSCAASGRTISRNAMGWYRQAPGTERELVASISRSGGSTYYADSVKGRFTISRDNAKNTVYLQMNSLKPEETAVYYCAASYWHRRYDYWGQGTQVTVSS,high polyreactivity
3,QVQLVESGGGLVQAGGSLRLSCAASGRTISSYAMGWSRQAPGKERELVAAISRSGGNTYYPDSVKGRFTISRDHAKNTVYLQMNSLKPEDTAVYYCNARGRTGFQADKFGYWGQGTQVTVSS,high polyreactivity
4,QVQLVESGGGLVQAGGSLRLSCAASGRTIWRYGMGWYRQAPGKERELVAAITDSGDSTYYADSVKGRFTISRDNAKNTVYLQMNSLKPEDTAVYYCAASDVVFALNGYYPGEDDYWGQGTQVTVSS,low polyreactivity
5,QVQLVESGGGLVQAGGSLRLSCAASGRTIWYYAMGWYRQAPGKERELVAAITYRGGSTYYADSVKGRFTISRDNVKNTVYLQMNSLKPEDTAVYFCAKENYYGGGFDYWGQGTQVTVSS,high polyreactivity
6,QVQLVESGGGLVQAGGSLRLSCAASGRTIYGYAMGWYRQAPGKERELVARIRSGGSTNYADSVKGRFTISRDNAKNTVYLQMNSLKPEDTAVYYCAARPGAAGYKYYYWGQGTQVTVSS,high polyreactivity
7,QVQLVESGGGLVQAGGSLRLSCAASGRTIYVYAMGWYRQAPGKERELVADINWSGGSTYYADSVKGRFTISRDNAKNTVYLQMNSLKPEDTAVYYCAADDWVRRRSHSGPEGYVYWGQGTQVTVSS,low polyreactivity
8,QVQLVESGGGLVQAGGSLRLSCAASGRTLAKNAMGWYRQAPGKERELVAAISRRGGSTYYADSVKGRFTISRDNAKNTVYLQMNSLKPEDTAVYYCARASRQGYYQLSYDEFDYWGQGTQVTVSS,high polyreactivity
9,QVQLVESGGGLVQAGGSLRLSCAASGRTLAPYAMGWYRQAPGKERELVAISTSGGSTYYADSVKGRFTISRDNGKNTVYLQMNSRKPEDNAVYYCAADGNSTGVYWWFYGFDYWGQGTQVTVSS,low polyreactivity
10,QVQLVESGGGLVQAGGSLRLSCAASGRTLDSNAMGWYRQAPGKERDLVATISKRGGNTYYADSVKGRFTISRDNAKNTVYLQMNSLKPEDTAVYYCAKDVPPEYPTSSYDYWGQGTQVTVSS,low polyreactivity
11,QVQLVESGGGLVQAGGSLRLSCAASGRTLDSNAMGWYRQAPGKERELVAAISSAGSTNYADSVKGRFTISRDNAKNTVYLQMNSLKPEDTAVYYCAADLIGSHDYWGQGTQVTVSS,low polyreactivity
12,QVQLVESGGGLVQAGGSLRLSCAASGRTLELYVMGWYRQAPGKERELVAAIRWGTGSTYYADSVKGRFTISRDNAKNTVYLQMNSLKPEDTAVYYCAAVLRQYYRAYDYWGQGTQVTVSS,high polyreactivity
13,QVQLVESGGGLVQAGGSLRLSCAASGRTLERYSMGWYRQAPGKEREFVAAIRWSGGSTYYADSVKGRFTISRDNAKNTVYLQMNSLKPEDTAVYYCNADWQSYYWAGDGYDYWGQGTQVTVSS,low polyreactivity
14,QVQLVESGGGLVQAGGSLRLSCAASGRTLFGYAMGWYRQAPGKERELVAAITYGATSTYAHSVKGRFTISRDNAKNTVYLQMNSLKPEDTAVYYCNAYTPTDGFDYWGQGTQVTVSS,low polyreactivity
15,QVQLVESGGGLVQAGGSLRLSCAASGRTLFSNAMGWYRQAPGKERELVASITSGDSTYYADSVKGRFTISRDNAKNTVYLQMNSLKPEDTSVYYCAADPSIVDGEYGYWGQGTQVTVSS,low polyreactivity
16,QVQLVESGGGLVQAGGSLRLSCAASGRTLFYYTMGWYRQAPGKERELVAAISSGDSTNYADSVKGRFTISRDNAKNTVYLQMNRLKPEDTAVYYCATQYLLDYKKTYRTYYSPYDYWGQGTQVTVSS,low polyreactivity
17,QVQLVESGGGLVQAGGSLRLSCAASGRTLGANAMGWYRQAPGKEREFVAAISYSDTRTYADSVKGRFTISRDNAKNTVYFQMNSLKPEDTAVYYCAADYYTWYGILYDYWGQGTQVTVSS,low polyreactivity
18,QVQLVESGGGLVQAGGSLRLSCAASGRTLGPNPMGWYRPAPGKERELVAAITYNAGSTYYADSVKGRFTISRDNAKNTVYLQMNSLKPEDTAVYYCAARSTQKWTKYYYWGQGTQVTVSS,high polyreactivity
19,QVQLVESGGGLVQAGGSLRLSCAASGRTLGQNAMGWYRQAPGKERELVASIRSGGITDYADSVKGRFTISRDNAKNTVYLQMNCLKPEDTAVYYCAADTYGYQGSAGGHWGQGTQVTVSS,low polyreactivity
20,QVQLVESGGGLVQAGGSLRLSCAASGRTLGQYEMGWYRQAPGTERELVAAITSSDGITYYADSVKGRFTISRDNAKNTVYLQMNSLKPEDTAVYYCASDYPYYWYWTYLYDYCGQGTQVTVSS,low polyreactivity
21,QVQLVESGGGLVQAGGSLRLSCAASGRTLGVYAMGWYRPAPGKERELVATITAGGSITSYADSVKGRFTISRDNAKNTVYLQMNSLKPEDTAVYYCAADVPGNYRKYRYGRASSHDYWGQGTQVTVSS,low polyreactivity
22,QVQLVESGGGLVQAGGSLRLSCAASGRTLGYKAMVWYRQAPGKERELVAAISWSGGATYYADSVKGRFTISRDNAKNTVYLQMNSLKPEDTAVYYCAALNNRYPLYNYWGQGTQVTVSS,low polyreactivity

row,Sequence,polyreactivity (PSR sort gate)
1,QVQLVESGGGLVQAGGSLRLSCAASGRTLHANTMGMYRQAPGKERELVAAITRGGGNTYYADSVKGRFTISRDNAKNTVYLQMNSLKPEDTAVYYCNADVSGYLWYEYDYWGQGTQVTVSS,low polyreactivity
2,QVQLVESGGGLVQAGGSLRLSCAASGRTLHSYAMGWYRQAPGKERELVAAISGGASTYADSVKGRFTISRDNAMITVYFQMNSLKPEDTAVYYCAADDDPVPTYEYDVWGQGTQVTVSS,low polyreactivity
3,QVQLVESGGGLVQAGGSLRLSCAASGRTLHYYAMGWYRQAPGKERELVARINWSGGSTYYADSVKGRFTISRDNAKNTVYLQMNSLKPEDTAVYYCARTSYYWSSFDYWGQGTQVTVSS,high polyreactivity
4,QVQLVESGGGLVQAGGSLRLSCAASGRTLIGNAMGWYRQAPGKEREFVAAITRSGGDTYYADSVKGRFTISRDNAKNTVYLQMNSLKPEDTAVYYCAADGQLHMDYWGQGTQVTVSS,high polyreactivity
5,QVQLVESGGGLVQAGGSLRLSCAASGRTLKLNAMGWYRQAPGKERELVAAISWRGGSTYYADSVKGRFTISRDNAKNTVYLQMNSLKPEDTAVYYCAAEATAGFWSYGTYDYWGQGTQVTVSS,high polyreactivity
6,QVQLVESGGGLVQAGGSLRLSCAASGRTLKTYVMGWYRQAPGKERELVAAITSGGRTYYADSVKGRFTISRDNAKNTVYVQMNSLKPEDTAVYYCNAQLYWSRSWYLFDNTSFDYWGQGTQVTVSS,low polyreactivity
7,QVQLVESGGGLVQAGGSLRLSCAASGRTLKYNAMGWYRQAPGKERELVAAISYSGSSTYYADSVKWRFTISRDNAKNTVYLQMNSLKPEDNAVYYCNSARPTAAYDYWGQGTQVTVSS,low polyreactivity
8,QVQLVESGGGLVQAGGSLRLSCAASGRTLKYNVMGWYRQAPGKERELVASITSRGGSTRYADSVKGRFTISRDNAKNTVYLLMNSLKPEDTAVYYCAARYTTARSSYDYWGQGTQVTVSS,high polyreactivity
9,QVQLVESGGGLVQAGGSLRLSCAASGRTLPIYAMGWYRQAPGKERELVAAISWSGASTYADSVKGRFTISRDNAKYTVYLQMNSLKPEDTAVYYCAAYYESWYSSYGYGYWGQGTQVTVSS,low polyreactivity
10,QVQLVESGGGLVQAGGSLRLSCAASGRTLPPNAMGWYRQAPGKERELVAGITWSGGSTYYADSVKGRFTISRDNAKNTVYLQMNSLKPEDTAVYYCAASRSFPGYGLYYYWGQGTQVTVSS,low polyreactivity
11,QVQLVESGGGLVQAGGSLRLSCAASGRTLPYYMGWYRQAPGKERELVAAITNGDSTYYADSVKGRFTISRDNAKNTVYLQMNSLKPEDTAVYYCNVVTYVKYGYWGQGTQVTVSS,high polyreactivity
12,QVQLVESGGGLVQAGGSLRLSCAASGRTLQGYAMGWYRQAPGKERELVAAISRGGGSTYADSVKGRFTISRDNAKNTVYLQMNSLKPEDTAVYYCNKKSYYRYYWGQGTQVTVSS,high polyreactivity
13,QVQLVESGGGLVQAGGSLRLSCAASGRTLQTYVMGWYRQAPGKERELVAAITRGGGSTYYADSVKGRFTISRDNGKNTVFLQMNSLKPVDTSVYYCAASALRFNSRFSHWYIYWGQGTQVTVSS,high polyreactivity
14,QVQLVESGGGLVQAGGSLRLSCAASGRTLRGNAMGWYRQAPGKERELVAVITRRGGSTYYADSVKGRFTISRDNAKNTFYLQMNSLKPEDTAVYYCAAVPYYYKYDYWGQGTQVTVSS,high polyreactivity
15,QVQLVESGGGLVQAGGSLRLSCAASGRTLRIYAMGWYRQAPGKERELVAAITSSGRTNYADSVKGRFTISRDNAKNTVYLQMNSLKPEDTAVYYCAAVTPAVNYFRAASGYYYWGQGTQVTVSS,low polyreactivity
16,QVQLVESGGGLVQAGGSLRLSCAASGRTLRRYAMGWYRQAPGKERELVAGISRNGGSTYYADSVKGRFTISRDNAKNTVYLQMNSLKPEDTAVYYCNADDKAQSDYWGQGTQVTVSS,high polyreactivity
17,QVQLVESGGGLVQAGGSLRLSCAASGRTLRWYAMGWYRQAPGKERELVAAITWRGGSTRYADSVKGRFTISRDNAKNTVYLQMNSLKPEDTAVYYCNKYYYRTIEGDYWGQGTQVTVSS,high polyreactivity
18,QVQLVESGGGLVQAGGSLRLSCAASGRTLRWYTMGGYRQAPGEERELVAAISSSGGSTYYADSVKGRFTISRDNAKNTVYLQMNSLKPEDTAVYYCARDRRLREYDYWGQGTQVTVSS,low polyreactivity
19,QVQLVESGGGLVQAGGSLRLSCAASGRTLRYYAMGRYIQAPGKERELVAIITSTGSTYYADSVKGRFTISRDNAKNTVYLQMNSLKPEDTAVYYCNRVISVSLDYLGENYWGQGTQVTVSS,high polyreactivity
20,QVQLVESGGGLVQAGGSLRLSCAASGRTLRYYAMGWYRQAPGKERELVAAITKSGGSTYYADSVKGRFTISRDNAKNTVYLQMNSLKPEDTAVYYCNKVTYSRAQYIGGDGYYWGLGTQVTVSS,high polyreactivity
21,QVQLVESGGGLVQAGGSLRLSCAASGRTLSANAMGWYRQAPGKERELVATNSTRGGRTYYADSVKGRFTISRDNAKNTVYLQMNSLKPEDTAVYYCAVTIRAKYTLKEDYWGQGTQVTVSS,low polyreactivity
